Columns and labels:
[1] = target: T1, Rv0348 (MosR) (Mycobacterium tuberculosis H37Rv) (UniProt O06299); assay: EMSA
T1 sequence: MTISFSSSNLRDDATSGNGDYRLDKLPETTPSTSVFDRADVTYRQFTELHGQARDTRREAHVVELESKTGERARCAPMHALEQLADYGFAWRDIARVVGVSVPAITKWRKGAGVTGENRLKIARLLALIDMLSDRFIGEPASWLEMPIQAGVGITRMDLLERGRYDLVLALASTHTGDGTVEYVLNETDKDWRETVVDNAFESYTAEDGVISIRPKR

[2] = target: T2, Phosphorylated DevR (DevR~P) (Mycobacterium tuberculosis, UniProt P9WMF9 1-217, phosphorylated using 50 mM acetyl phosphate (residue not stated)); assay: native gel or EMSA; details: both partners purified
T2 construct: DevR, two-component response regulator of Mycobacterium tuberculosis (devR of the Rv3134c-devR-devS operon), phosphorylated in vitro with acetyl phosphate; also called His6-DevR phosphorylated
T2 sequence (P9WMF9 whole entry): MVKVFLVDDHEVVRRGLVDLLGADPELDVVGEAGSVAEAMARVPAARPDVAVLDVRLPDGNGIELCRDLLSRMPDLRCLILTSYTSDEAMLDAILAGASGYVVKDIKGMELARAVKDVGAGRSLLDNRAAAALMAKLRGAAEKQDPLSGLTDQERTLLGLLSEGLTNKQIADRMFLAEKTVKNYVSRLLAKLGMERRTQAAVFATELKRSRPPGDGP

Molecule	binding [1]	binding result [2]
TTACTGGCGGGGACCGCTATCTCCCAGGGGCGTTGGTCCCCACCTGAGGGCCGTTAGTCCTTATCGACCGATGACAGACGCAACCCGTCAGGGCGAGAATGAATCTCACCTATCGCACGGGTGGCTCGTCCAGGTCCACAACCATCGCCCAGCTTTTCACAGCAAAGTCCCAGAAATGGCTTACAGTTGCCGACAGCTGCCGAACCAGCGGCCGTC (double strand) [Rv3134c promoter fragment (devR operon promoter)]	no binding	–
Rv0348-His6 (natural protein, also called mosR; not shown: His6, C-terminal, kept) MTISFSSSNLRDDATSGNGDYRLDKLPETTPSTSVFDRADVTYRQFTELHGQARDTRREAHVVELESKTGERARCAPMHALEQLADYGFAWRDIARVVGVSVPAITKWRKGAGVTGENRLKIARLLALIDMLSDRFIGEPASWLEMPIQAGVGITRMDLLERGRYDLVLALASTHTGDGTVEYVLNETDKDWRETVVDNAFESYTAEDGVISIRPKR	–	binds

Source: article PMC6868718, “Multiple transcription factors co-regulate the Mycobacterium tuberculosis adaptation response to vitamin C” (BMC Genomics, 2019)
